Positions count from the first letter of the chain named. Blank lines part the entries; values can stand above or below the binder they belong to.
Experiments:
[1] = target: T1, recombinant soluble cynomolgus TREM2 protein (cynomolgus TREM2 extracellular domain coupled to a Flag/His tag) (cynomolgus, UniProt A0A2K5UY34 49-204); assay: Octet BLI, antibody on anti-human Fc sensor, 25 C
T1 construct: extracellular domain; also called Cyno TREM2
T1 sequence: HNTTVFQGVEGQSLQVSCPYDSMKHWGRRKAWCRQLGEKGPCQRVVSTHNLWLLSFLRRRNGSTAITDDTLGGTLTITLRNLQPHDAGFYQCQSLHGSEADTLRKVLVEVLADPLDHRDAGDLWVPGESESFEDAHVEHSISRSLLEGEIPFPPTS
Method: (§1) To quantitate the binding affinity of agonist antibodies for human TREM2, association and dissociation rate constants as well as the equilibrium dissociation constant were determined using anti-human Fc (Kinetic) sensors on an Octet® HTX instrument (Pall ForteBio). Agonist anti-TREM2 antibodies were made up in DMEM null media, 250 μL at 10 μg/mL. The, 250 uL of assay buffer (10 mM Tris (pH 7.6), 0.1% Triton X-100, 150 mM NaCl, 1mM CaCl₂, and 1 mg/mL BSA) was added to the antibody solutions to a final volume of 500 μL and final antibody concentration of 5 μg/mL. The anti-human Fc sensor was pre-incubated in 200 μL of the assay buffer for a minimum of 10 minutes. The sensor was then regenerated for 5 seconds in 10 mM glycine pH 1.5. Test agonist anti-TREM2 antibodies were loaded onto the sensor for 2 minutes, and baseline measurements were taken for 2 minutes. […] The recombinant TREM2 proteins were allowed to associate with the antibody-loaded sensor for 10 minutes, and then dissociation was measured for 10 minutes. The assay was conducted at 25° C. Experimental kinetic results were globally fit to a 1:1 binding model in order to determine the association and dissociation rate constants as well as the equilibrium dissociation constant.

[2] = target: T2, recombinant soluble human TREM2 protein (human TREM2 ECD-FlagHis) (human, UniProt Q9NZC2 19-174); assay: Octet BLI, antibody on anti-human Fc sensor, 25 C
T2 sequence: T1 sequence with E10A, R60W, F89L, V125F
Method: as §1

[3] = target: T2, recombinant soluble human TREM2 protein …; assay: Octet BLI binning; competitor: load Ab 4C5
Method: (§2) Each of sixteen different anti-TREM2 antibodies produced from hybridomas were quantitated and loaded onto one of the anti-human Fc sensors at 5 μg/mL for 2 minutes (“Load Antibody”). The sensor was then blocked with 100 μg/mL of an irrelevant human IgG2 antibody for 5 minutes. […] Next, each of the sixteen different anti-TREM2 antibodies (“Sandwich Antibody”) was added to the sensor at 5 μg/mL and allowed to bind for 5 minutes. All assay buffers contained 10 mM Tris (pH 7.6), 0.1% Triton X-100, 150 mM NaCl, 1 mM CaCl₂, and 1 mg/mL BSA. The assay was conducted at 25° C. Experimental kinetic results were fit to a 1:1 binding model.
(§3) However, if addition of the sandwich antibody produces a binding event, then the sandwich antibody binds to a different epitope on human TREM2 than the load antibody and the two antibodies are categorized into different epitope bins.

[4] = target: T2, recombinant soluble human TREM2 protein …; assay: Octet BLI binning; competitor: load Ab 4G10
Method: as §2, §3

[5] = target: T2, recombinant soluble human TREM2 protein …; assay: Octet BLI binning; competitor: load Ab 26F2
Outline: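 Load antibody captured on anti-human Fc sensors at 5 μg/mL for 2 min, then blocked with 100 μg/mL irrelevant human IgG2 for 5 min. Sandwich antibodies were added at 5 μg/mL for 5 min in 10 mM Tris pH 7.6, 0.1% Triton X-100, 150 mM NaCl, 1 mM CaCl₂, 1 mg/mL BSA, 25° C.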

B1: 10E3 (antibody, human IgG2, V domains shown)
VH: EVQLVQSGAEVKKPGESLMISCKGSGYSFTNYWIGWVRQMPGKGLEWMGIIYPGDSDTRYSPSFQGQVTISADKSISTAYLQWSSLKASDTAMYFCARRRQGIWGDALDIWGQGTLVTVSS
VL: EIVMTQSPATLSVSPGERATLSCRASQSVSSNLAWFQQKPGQAPRLLIYGASTRATGIPARFSVSGSGTEFTLTISSLQSEDFAFYYCLQDNNWPPTFGPGTKVDIK
notes: human IgG2 from hybridoma
Kd [1]: 11.3 nM
Kd [2]: 10.3 nM
sandwich binding signal [3]: 0
sandwich binding signal [4]: -0.008
sandwich binding signal [5]: 0.354

B3: 6E7 (antibody, human IgG2, V domains shown)
VH: EVQLVQSGAEVKKPGESLKISCKGSGYSFTSYWIAWVRQMPGKGLEWMGIIYPGDSDTRYSPSFQGQVTISADKSISTAYLQWSSLKASDTAMYFCARQRTFYYDSSDYFDYWGQGTLVTVSS
VL: DIQMTQSPSSVSASVGDRVTITCRASQGISSWLAWYQQKPGKAPKLLIYAASSLQNGVPSRFSGSGSGTDFTLTISSLQPEDFATYFCQQADSFPRTFGQGTKLEIK
notes: human IgG2 from hybridoma
Kd [1]: 2.5 nM
Kd [2]: 2.6 nM
sandwich binding signal [5]: 0.506

More lines, now with the values ahead:

Kd [1]: 8.71 nM
Kd [2]: 11 nM
sandwich binding signal [5]: 0.363
B2: 13E7 (antibody, human IgG2, V domains shown)
VH: B1 VH with N31S, I110F
VL: B1 VL with F85V
notes: human IgG2 from hybridoma

Kd [1]: 1.6 nM
Kd [2]: 2.1 nM
sandwich binding signal [5]: -0.045
B4: 5E3 (antibody, human IgG2, V domains shown)
VH: QVQLVQSGAEVKKPGASVKVSCKASGYTFTGYYIHWVRQAPGLGLEWMGWINPYSGGTTSAQKFQGRVTMTRDTSISSAYMELSRLRSDDTAVYYCARDGGYLALYGTDVWGQGTTVTVSS
VL: DIQMTQSPSSLSASVGDRVTITCRASQGISNYLAWFQQKPGKAPKSLIYAASSLQSGVPSKFSGSGSGTDFTLTISSLQPEDFATYYCQQYSTYPFTFGPGTKVDIK
notes: human IgG2 from hybridoma

— US20220204611A1 (Amgen, published 2022)
